In patent US20250304707A1 (JOINT STOCK COMPANY BIOCAD, published 2025):
Numbering of substitutions follows the chain as printed. Names may count otherwise.

B1: Antibody 01-001 (antibody, human IgG1, kappa, L234A L235A, V domains shown)
VH: EVQLVQSGGGLVQPGGSLRLSCAVSGFTLSSSAMSWVRQAPGKGFEWVSGYNGGSDRAGFADSVEGRFTISRDNAKNTLYLQMNSLKPEDTAVYYCARYIANSGTYYWDYWGQGTLVTVSS
VL: QPVLTQPPSASGTPGQRVTISCSGSSSNIGSNTVNWYQQLPGTAPKLLIYNDSQRPSGVPDQFSGSKSGTSASLAISGLQSDNEADYYCAAWDGSLNVWMFGGGTKVTVLR
notes: Full-length human IgG1 with L234A/L235A (pEE-HCLALA IgG1 vector) and CK light chain constant domain (pEE-CK), made in CHO-T cells; also called candidate 01
B2: Antibody 01-006 (antibody, human IgG1, kappa, L234A L235A, V domains shown)
VH: B1 VH with A23S, V24A, L29F, S32G, A33L, F60Y, A61T, E65K
VL: QAVLTQPPSVSGTPGQRVTISCSGSTSNIGHRTVNWYQQFPGAAPKLLIYRNNQRPSGVPARFSGSKSGTSASLAISGLQSEDEADYHCAAWDDSLTAWVFGGGTQLTVLR
notes: Full-length human IgG1 with L234A/L235A (pEE-HCLALA IgG1 vector) and CK light chain constant domain (pEE-CK), made in CHO-T cells; also called candidate 06
B3: Antibody 01-016 (antibody, human IgG1, kappa, L234A L235A, V domains shown)
VH: B1 VH with L29F, A33V
VL: QPVLTQPPSVSEAPRQRVTISCSGSSSNIGNNAVNWYQQLPGKAPKLLIFKNNQRPSGVPDRFSGSKSGTSASLVISGLQSEDEADYYCAAWDGSLNAWMFGGGTKLTVLR
notes: Full-length human IgG1 with L234A/L235A (pEE-HCLALA IgG1 vector) and CK light chain constant domain (pEE-CK), made in CHO-T cells; also called candidate 016
B4: Antibody 01-021 (antibody, human IgG1, kappa, L234A L235A, V domains shown)
VH: B1 VH with E1Q, V24A, L29F, S32G, A33L
VL: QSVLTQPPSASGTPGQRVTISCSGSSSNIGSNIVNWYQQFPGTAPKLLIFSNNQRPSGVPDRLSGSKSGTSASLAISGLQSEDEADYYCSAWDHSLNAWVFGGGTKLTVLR
notes: Full-length human IgG1 with L234A/L235A (pEE-HCLALA IgG1 vector) and CK light chain constant domain (pEE-CK), made in CHO-T cells; also called candidate 021
B5: Antibody 01-027 (antibody, human IgG1, kappa, L234A L235A, V domains shown)
VH: B1 VH with P14S, L20V, V24A, L29F, S32G, A33L, F60Y, A61T, E65K, L116T
VL: QAVLTQPPSASGTPGQRVSISCSGGISNIGSNIVNWYQHLPGTAPKLLIYSGNQRPSGVPDRFSGSKSGTSASLAISGLQSEDEADYYCSSWDSDLRNWVFGGGTKLTVLR
notes: Full-length human IgG1 with L234A/L235A (pEE-HCLALA IgG1 vector) and CK light chain constant domain (pEE-CK), made in CHO-T cells; also called candidate 027
B6: Antibody 01-022 (antibody, human IgG1, kappa, L234A L235A, V domains shown)
VH: B1 VH with P14S, L20V, V24A, L29F, S32G, A33L, F60Y, A61T, E65K, L116T
VL: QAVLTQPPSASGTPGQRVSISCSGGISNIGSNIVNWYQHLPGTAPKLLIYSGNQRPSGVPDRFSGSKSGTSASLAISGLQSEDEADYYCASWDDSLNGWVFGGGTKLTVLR
notes: Full-length human IgG1 with L234A/L235A (pEE-HCLALA IgG1 vector) and CK light chain constant domain (pEE-CK), made in CHO-T cells; also called candidate 022
B7: Antibody 01-024 (antibody, human IgG1, kappa, L234A L235A, V domains shown)
VH: EVQLVQSGGGLVQSGGSLRVSCAASGFTFSSGLMSWVRQAPGKGFEWVSCYNGGSDRAGYTDSVKGRFTISRDNAKNTLYLQMNSLKPEDTAVYYCARYIANSGTYYWDYWGQGTTVTVSS
VL: B5 VL
notes: Full-length human IgG1 with L234A/L235A (pEE-HCLALA IgG1 vector) and CK light chain constant domain (pEE-CK), made in CHO-T cells; also called candidate 024
B8: Antibody 01-025 (antibody, human IgG1, kappa, L234A L235A, V domains shown)
VH: B7 VH with C50G
VL: B3 VL with F50Y, K51S, N52T, V75A, G94D, S95R, L96V, N97S, M100L
notes: Full-length human IgG1 with L234A/L235A (pEE-HCLALA IgG1 vector) and CK light chain constant domain (pEE-CK), made in CHO-T cells; also called candidate 025
B9: Antibody 01-026 (antibody, human IgG1, kappa, L234A L235A, V domains shown)
VH: B7 VH with C50G
VL: QSVLTQPPSVSGAPGQRVTISCTGSSSNIGAGYDVHWYQQLPGTAPKLVIYGNTNRPSGVPDRFSGSKSGTSASLAISGLQSEDEADYYCAAWDDSLNGWVFGGGTKLTVLR
notes: Full-length human IgG1 with L234A/L235A (pEE-HCLALA IgG1 vector) and CK light chain constant domain (pEE-CK), made in CHO-T cells; also called candidate 026
B10: Antibody 01-030 (antibody, human IgG1, kappa, L234A L235A, V domains shown)
VH: B1 VH with L20V, V24A, T28S, L29F, S32G, A33L
VL: QSALTQPPSASGTPGQRVTISCSGSISNIGSNTVNWYQHLPGTAPKLLIYNHNQRPSGVPDRFSGSTSGTSASLAISGLQSEDEADYFCATWDDSLSAWLFGGGTKLTVLR
notes: Full-length human IgG1 with L234A/L235A (pEE-HCLALA IgG1 vector) and CK light chain constant domain (pEE-CK), made in CHO-T cells; also called candidate 030
B11: Antibody 01-033 (antibody, human IgG1, kappa, L234A L235A, V domains shown)
VH: EVQLVQSGGGLVQPGGSLRLSCAASGFTFSSGLMSWVRQAPGGFEWVSGYNGGSDRAGFADSVEGRFTISRDNAKNTLYLQMNSLKPEDTAVYYCARYIANSGTYYWDYWGQGTTVTVSS
VL: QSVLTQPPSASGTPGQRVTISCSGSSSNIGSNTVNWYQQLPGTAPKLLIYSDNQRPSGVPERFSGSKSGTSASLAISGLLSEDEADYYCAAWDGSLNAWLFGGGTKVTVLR
notes: Full-length human IgG1 with L234A/L235A (pEE-HCLALA IgG1 vector) and CK light chain constant domain (pEE-CK), made in CHO-T cells; also called candidate 033
B12: Antibody 01-037 (antibody, human IgG1, kappa, L234A L235A, V domains shown)
VH: B7 VH with C50G
VL: SYVLTQPPSASGTPGQRVTISCSGTRSNIGTNTVNWYQQLPGTAPKLLIYRNNQRPSGVPDRFSGSKSGTSASLAISGLQSEDEADYYCAVWDDRVSAWLFGGGTKLTVLR
notes: Full-length human IgG1 with L234A/L235A (pEE-HCLALA IgG1 vector) and CK light chain constant domain (pEE-CK), made in CHO-T cells; also called candidate 037

Each binder was assayed against T1, human BCMA on the surface of RPMI8226 cells (human, UniProt Q02223 1-184) (assay: flow cytometry on RPMI8226 (BCMA+) cells, anti-human Fc-PE, one antibody concentration (not given)).
T1 construct: whole, on cells; also called BCMA receptor; RPMI8226 (BCMA+)
T1 sequence (looked up): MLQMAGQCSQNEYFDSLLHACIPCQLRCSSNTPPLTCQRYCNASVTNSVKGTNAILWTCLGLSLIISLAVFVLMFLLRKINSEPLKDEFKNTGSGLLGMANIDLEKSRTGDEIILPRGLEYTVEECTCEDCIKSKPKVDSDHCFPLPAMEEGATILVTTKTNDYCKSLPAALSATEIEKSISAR

Binder	Fluorescent signal level (sample/background)
B1	10.7
B2	9.61
B3	7.87
B4	9.99
B5	19.1
B6	9.57
B7	19.9
B8	15
B9	12.1
B10	16.5
B11	14.7
B12	11.7

The binders below were run against T2, human BCMA (soluble analyte of Examples 8 and 14) (human, UniProt Q02223 1-54, limits assumed) (assay: BLI competition, APRIL/TNFSF13 (competitor) on AR2G sensors, premix 710 nM antibody + 71 nM human BCMA; without antibody 0.6588 nm).
T2 sequence (looked up): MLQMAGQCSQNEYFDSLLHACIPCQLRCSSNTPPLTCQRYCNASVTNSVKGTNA

Binder	Response (premix of antibody and BCMA on APRIL sensors) [nm]
B1	-0.0081
B2	0.0464
B3	-0.0062
B4	-0.0015
B5	0.017
B6	0.013
B7	0.0151
B8	0.0259
B9	0.0111
B10	-0.0066
B11	-0.0078
B12	0.0304
